Assay [1] deals with T1, bovine serum albumin (bovine, UniProt P02769 25-607).
T1 construct: also called BSA
The experiment in a line: phage-wrapping ELISA on BSA, anti-M13-HRP detection. For orientation: An ELISA detects its analyte on a solid surface through an enzyme-linked reagent.

Assay [2] has as its target T1, bovine serum albumin. The experiment in a line: phage ELISA on BSA, anti-M13-HRP detection.
In assay [3] the target is T2, prostate-specific membrane antigen (PSMA), dimeric form (UniProt Q04609 44-750, limits assumed).
T2 construct: Purified protein, construct not described; also called dimeric PSMA
T2 sequence (Q04609 44-750 limits assumed): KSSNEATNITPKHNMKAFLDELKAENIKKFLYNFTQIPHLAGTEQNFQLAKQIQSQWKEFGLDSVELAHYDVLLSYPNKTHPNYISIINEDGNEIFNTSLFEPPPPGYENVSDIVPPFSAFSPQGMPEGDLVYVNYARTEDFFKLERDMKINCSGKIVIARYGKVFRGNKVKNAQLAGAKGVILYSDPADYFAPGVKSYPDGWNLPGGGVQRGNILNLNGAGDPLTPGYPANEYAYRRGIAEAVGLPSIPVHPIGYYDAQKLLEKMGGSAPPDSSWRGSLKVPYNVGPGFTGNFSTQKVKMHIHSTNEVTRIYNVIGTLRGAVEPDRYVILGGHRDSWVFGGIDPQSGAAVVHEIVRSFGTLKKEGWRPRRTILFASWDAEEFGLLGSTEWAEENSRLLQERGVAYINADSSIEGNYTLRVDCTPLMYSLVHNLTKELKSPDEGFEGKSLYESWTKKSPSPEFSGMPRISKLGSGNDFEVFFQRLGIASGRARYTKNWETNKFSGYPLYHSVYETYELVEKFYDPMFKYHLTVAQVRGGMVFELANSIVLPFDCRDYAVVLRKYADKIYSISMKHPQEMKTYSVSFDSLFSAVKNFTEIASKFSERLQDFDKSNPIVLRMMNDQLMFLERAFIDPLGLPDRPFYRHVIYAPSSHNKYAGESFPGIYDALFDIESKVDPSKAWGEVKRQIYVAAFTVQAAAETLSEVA
The experiment in a line: phage ELISA, PSMA dimer coated on the plate, [PSMA] = 11.1 nM, phage titrated, anti-M13-HRP detection. The procedure:
(§1) In a phage-based ELISA, specific wells of a 96-well microtiter plate (Nunc Maxisorp) were coated with 100 µL/well of a solution of PSMA (5.56 or 11.1 nM) monomer or dimer protein diluted in PBS. The plate was incubated for 1 h on a shaker at room temperature. The coating solution was removed, and the wells were blocked with 320 µL/well of 0.2% w/v solution of BSA in PBS for 30 min, and washed three times with 300 µL/well of wash buffer PT (0.05% TWEEN-20 in PBS). […] The wells on the ELISA plate were then incubated with the phage samples (100 µL/well) for 1 h. The wells were washed five times with PT and then incubated with horseradish-peroxidase-conjugated anti-M13 antibody (100 µL/well, 1:5000 dilution in PBT) for 30 min. The wells were washed three times with PT, and two times with PBS. The plate was then developed by incubating with HRP substrate solution (100 µL/well; 1 mg/mL o-phenylenediamine dihydrochloride and 0.02% w/v H_2O_2) in citric acid buffer (50 mM citric acid, 50 mM Na_2HPO_4, pH 5.0). Following an appropriate incubation time, HRP activity was measured spectrophotometrically at 450 nm using a microtiter plate reader (Bio-Tek).

Assay [4] has as its target T2, prostate-specific membrane antigen …. The experiment in a line: electrochemical impedance spectroscopy, virus-PEDOT film, Hill fit of ΔR/Ro against PSMA concentration; phage-2 alone, not wrapped with KCS-1. Here is the method:
(§2) Biosensing with Virus-PEDOT Films. To explore whether these wrapped virus particles could be exploited to create virus-electrode biosensors with a higher sensitivity for PSMA, films of PEDOT were prepared on gold electrodes by electropolymerization in the presence of phage-2 (FIG. 2B). The PEDOT films formed in solution during electropolymerization associate with the negatively charged perchlorate ions from the electrolyte solution as it is deposited onto the gold electrode.[30] Polymerization of EDOT in the presence of negatively charged phage particles leads to incorporation of virus particles into the polymeric film as counterion dopants due to electrostatic interactions.[21] […] SEM imaging confirms incorporation of phage into the bioaffinity matrix; both filament-like and less extended features having dimensions consistent with phage integrated as rope-like bundles into the polymer at various angles to the film (FIGS. 4B-4C) were observed. The $KCS$-1 wrapper was then applied in vitro simply by exposing the resultant phage-2 film for a short time to an aqueous solution of the wrapper. For the biosensing measurements, only the highest affinity ligand combination of phage-2 wrapped with $KCS$-1 was used, and it was studied in comparison to phage-2 films.
(§3) where $Y=\Delta R/R_o$, [L] is the ligand concentration, and n is the Hill coefficient.[31] […]

The target is the same in assay [5]. The experiment in a line: phage-based wrapping ELISA, PSMA dimer coated (FIG. 3C). Here is the method:
as §1, with “The plate was then developed by incubating with HRP substrate solution (100 µL/well; 1 mg/mL o-phenylenediamine dihydrochloride and 0.02% w/v H_2O_2) in citric acid buffer (50 mM citric acid, 50 mM Na_2HPO_4, pH 5.0).” left out
(§4) Phage-based wrapping ELISA: Phage (5 nM in 225 µL) and 2 µL of the purified cycloaddition reaction product, $KCS$-1/2 (308.7 µM) in water: acetonitrile (60:40), were mixed and serially diluted in PBT. […] Levels of phage binding were quantified as described above.

Assay [6] has the same target. The experiment in a line: electrochemical impedance spectroscopy, virus-PEDOT film, PBF-TWEEN buffer (FIG. 4F).
Assay [7] has the same target. The experiment in a line: electrochemical impedance spectroscopy, virus-PEDOT film, Hill fit of ΔR/Ro against PSMA concentration; phage-2 wrapped with KCS-1. Here is the method:
as §2, §3

In the next assay the target is T3, transferrin receptor (UniProt P02786 89-760, limits assumed).
T3 construct: Alternative target used as specificity control in impedance sensing; also called TfR
T3 sequence (P02786 89-760 limits assumed): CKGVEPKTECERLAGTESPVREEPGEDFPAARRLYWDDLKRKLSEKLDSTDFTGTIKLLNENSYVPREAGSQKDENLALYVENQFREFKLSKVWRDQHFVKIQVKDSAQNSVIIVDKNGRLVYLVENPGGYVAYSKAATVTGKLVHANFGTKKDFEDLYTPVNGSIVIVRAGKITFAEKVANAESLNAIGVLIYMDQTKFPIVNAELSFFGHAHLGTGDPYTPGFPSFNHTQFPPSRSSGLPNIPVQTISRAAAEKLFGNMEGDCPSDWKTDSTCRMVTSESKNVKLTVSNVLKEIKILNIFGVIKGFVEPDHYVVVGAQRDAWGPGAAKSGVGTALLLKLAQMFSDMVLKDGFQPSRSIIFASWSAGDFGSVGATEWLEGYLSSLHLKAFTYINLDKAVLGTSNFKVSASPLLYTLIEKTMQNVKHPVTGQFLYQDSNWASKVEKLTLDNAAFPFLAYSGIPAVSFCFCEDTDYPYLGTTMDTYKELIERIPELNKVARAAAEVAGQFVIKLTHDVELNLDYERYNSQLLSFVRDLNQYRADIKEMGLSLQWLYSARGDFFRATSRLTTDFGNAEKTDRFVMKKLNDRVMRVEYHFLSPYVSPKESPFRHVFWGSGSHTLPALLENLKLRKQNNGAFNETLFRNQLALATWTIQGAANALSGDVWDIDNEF
The experiment in a line: electrochemical impedance of a virus-PEDOT film in PBF-Tween after exposure to TfR, ΔR/Ro against frequency; concentration not given.

Assay [8] has as its target T2, prostate-specific membrane antigen …. The experiment in a line: phage-based wrapping ELISA, PSMA dimer coated (FIG. 3A). The procedure: as §1, with “The plate was then developed by incubating with HRP substrate solution (100 µL/well; 1 mg/mL o-phenylenediamine dihydrochloride and 0.02% w/v H_2O_2) in citric acid buffer (50 mM citric acid, 50 mM Na_2HPO_4, pH 5.0).” left out
as §4

The target in assay [9] is T1, bovine serum albumin. The experiment in a line: phage-wrapping ELISA on BSA, anti-M13-HRP detection. The source holds these as a separate data set.
Assay [10] concerns the target T4, PSMA on the surface of LNCaP cells (human, UniProt Q04609 1-750).
T4 construct: whole, on cells; Cells were glutaraldehyde-fixed on the plate in the cell-based ELISA and in suspension in the sandwich ELISA; also called cell surface PSMA; PSMA on LNCaP cells
The experiment in a line: cell-based phage ELISA on fixed LNCaP cells, anti-M13-HRP detection, HRP activity as fold change.

The target of assay [11] is T5, prostate-specific membrane antigen (PSMA), monomeric form (UniProt Q04609 44-750, limits assumed).
T5 construct: Purified protein coated on the ELISA plate; construct not described
T5 sequence (Q04609 44-750 limits assumed): as the sequence (Q04609 44-750 limits assumed) above
The experiment in a line: phage ELISA, PSMA monomer coated on the plate, [PSMA] = 11.1 nM, anti-M13-HRP detection. The procedure:
as §1

Assay [12] deals with T2, prostate-specific membrane antigen …. The experiment in a line: electrochemical impedance of a virus-PEDOT film in PBF-Tween after exposure to PSMA, ΔR/Ro against frequency; concentration not given.
The target in assay [13] is T4, PSMA on the surface of LNCaP cells. The experiment in a line: cell-based phage ELISA on fixed LNCaP cells, anti-M13-HRP detection, HRP activity as fold change. The source holds these as a separate data set.
Assay [14] has as its target T2, prostate-specific membrane antigen …. The experiment in a line: phage ELISA, PSMA coated on the plate, [PSMA] = 13 nM, anti-M13-HRP detection.

Data on ten molecules can be found in patent US11168306 (University of California, dated 2021).

Like-named read-outs stand apart in the source and are kept apart here. Ends that are not written are not given here. * marks the point of attachment. Butanoyl(4-N3) = [N-]=[N+]=NCCCC(=O)*; Pent4ynoyl = C#CCCC(=O)*

T1 sequence (P02769 25-607 limits assumed): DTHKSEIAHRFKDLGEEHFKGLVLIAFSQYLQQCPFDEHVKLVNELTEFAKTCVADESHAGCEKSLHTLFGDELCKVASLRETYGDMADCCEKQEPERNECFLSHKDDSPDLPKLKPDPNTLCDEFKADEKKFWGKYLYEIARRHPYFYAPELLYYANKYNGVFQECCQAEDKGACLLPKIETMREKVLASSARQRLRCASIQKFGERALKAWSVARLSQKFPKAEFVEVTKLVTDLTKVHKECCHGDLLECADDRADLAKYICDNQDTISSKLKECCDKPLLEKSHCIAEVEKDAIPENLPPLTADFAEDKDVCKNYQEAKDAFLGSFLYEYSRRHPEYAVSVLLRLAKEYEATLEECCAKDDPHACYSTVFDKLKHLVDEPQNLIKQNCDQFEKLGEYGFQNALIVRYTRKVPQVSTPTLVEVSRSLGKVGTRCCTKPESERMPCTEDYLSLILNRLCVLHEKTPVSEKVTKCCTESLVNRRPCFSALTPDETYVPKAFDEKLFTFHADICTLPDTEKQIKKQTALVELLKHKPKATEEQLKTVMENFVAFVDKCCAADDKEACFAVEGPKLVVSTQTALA
T4 sequence (Q04609 whole entry): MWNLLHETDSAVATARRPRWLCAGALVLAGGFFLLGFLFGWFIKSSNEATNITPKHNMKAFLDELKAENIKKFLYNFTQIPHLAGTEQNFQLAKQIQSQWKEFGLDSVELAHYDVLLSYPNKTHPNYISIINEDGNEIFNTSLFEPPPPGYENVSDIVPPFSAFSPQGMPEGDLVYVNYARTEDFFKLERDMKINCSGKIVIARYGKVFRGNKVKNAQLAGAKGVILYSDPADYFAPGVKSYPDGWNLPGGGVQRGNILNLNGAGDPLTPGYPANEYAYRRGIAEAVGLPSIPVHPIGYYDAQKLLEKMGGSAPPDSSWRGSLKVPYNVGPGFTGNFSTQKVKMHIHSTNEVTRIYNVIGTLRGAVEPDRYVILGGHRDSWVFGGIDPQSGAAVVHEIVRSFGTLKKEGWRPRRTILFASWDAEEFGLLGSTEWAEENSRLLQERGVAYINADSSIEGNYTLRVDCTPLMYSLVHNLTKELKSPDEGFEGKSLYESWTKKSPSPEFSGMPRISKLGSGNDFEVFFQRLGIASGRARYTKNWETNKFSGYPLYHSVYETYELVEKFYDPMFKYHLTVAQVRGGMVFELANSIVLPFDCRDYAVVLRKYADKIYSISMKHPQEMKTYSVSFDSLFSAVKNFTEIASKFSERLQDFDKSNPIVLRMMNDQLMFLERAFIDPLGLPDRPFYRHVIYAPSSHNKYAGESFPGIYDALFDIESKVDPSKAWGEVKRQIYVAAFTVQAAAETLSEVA

B1: phage-2 wrapped with a 1:1 (w/w) mixture of KCS-2 and KCS-1 (peptide)
chain: SECVEVFQNSCDW
peptide 1: Pent4ynoyl-KKKKKKKKKKKKKK-NH2
peptide 2: {Butanoyl(4-N3)}-KKKCALCEFLG-NH2
peptide 3: {Butanoyl(4-N3)}-KKKSECVEVFQNSCDW-NH2
modifications: cysteine pairing not given here; also: K14 chains clicked to ligand chains, triazole to a chain's N-terminus
notes: Whole M13 virion with both wrappers held electrostatically on the coat; also called 1:1 mixture of KCS-1 and KCS-2 wrapped on the surface of phage-2; not shown: M13 major coat protein P8, 50 amino acid residues; NCBI GI:402239556 named in an embodiment
As for B1, the binding result with bovine serum albumin [1] is “no binding (tested: 5 nM)”.

B2: phage-2 (M13 phage displaying PSMA ligand 2 as a fusion to P8) (peptide)
chain: SECVEVFQNSCDW
modifications: not fully specified; cysteine pairing not given here; also: displayed on M13 phage as fusion to P8 coat protein
notes: Whole M13 virion in the assay (free in ELISA, embedded in a PEDOT film for impedance sensing); also called peptide 2; peptide-2; not shown: M13 major coat protein P8, 50 amino acid residues; NCBI GI:402239556 named in an embodiment
What is called EC50 (read off the curve) is the concentration needed to bring the measured effect to its halfway point. Read a high EC50 (read off the curve) as weaker potency. By Kd is commonly meant the equilibrium constant for the complex coming apart. Take B2: in the assay with bovine serum albumin [2], the binding result was “no binding (tested: 5 nM)”. The “EC50 (read off the curve)” value in assay [3] is approximately 0.008 nM. In assay [4], the Kd worked out at 54 nM.

B3: phage-2 wrapped with KCS-1 (peptide)
chain: SECVEVFQNSCDW
peptide 1: Pent4ynoyl-KKKKKKKKKKKKKK-NH2
peptide 2: {Butanoyl(4-N3)}-KKKCALCEFLG-NH2
modifications: not fully specified; cysteine pairing not given here; also: KCS-1 wrapper held on P8 coat electrostatically, triazole to a chain's N-terminus
notes: Whole M13 virion (free in ELISA, embedded in a PEDOT film for impedance sensing); the KCS-1 wrapper is held on the P8 coat electrostatically; also called Phage-2 film wrapped with KCS-1; not shown: M13 major coat protein P8, 50 amino acid residues; NCBI GI:402239556 named in an embodiment
B3: the “fold higher apparent affinity than phage-2 wrapped with KCS-2” value in assay [5] turned out to be 4 fold. The binding result in the assay with bovine serum albumin [1] is on record as “no binding (tested: 5 nM)”; with transferrin receptor, “no binding”. In assay [6], the “fold ΔR/Ro relative to films with unwrapped phage-2” value was found to be 3 fold. Moreover, the dissociation constant (Kd) in assay [7] amounted to 33 nM.

B4: phage-2 wrapped with KCS-2 (peptide)
chain: SECVEVFQNSCDW
peptide 1: Pent4ynoyl-KKKKKKKKKKKKKK-NH2
peptide 2: {Butanoyl(4-N3)}-KKKSECVEVFQNSCDW-NH2
modifications: not fully specified; cysteine pairing not given here; also: KCS-2 wrapper held on P8 coat electrostatically, triazole to a chain's N-terminus
notes: Whole M13 virion; the KCS-2 wrapper (K14 clicked to K3-ligand 2) is held on the P8 coat electrostatically, not covalently; also called Phage with chemically and genetically encoded ligands; not shown: M13 major coat protein P8, 50 amino acid residues; NCBI GI:402239556 named in an embodiment
As for B4, in [8], the “fold higher affinity than phage-2 without the ligand wrapper” value is approximately 50 fold. In addition, the binding result with bovine serum albumin [9] is reported as “no binding (tested: 5 nM)”.

B5: phage wrapped with P100NSP-2 (peptide)
peptide 1: SECVEVFQNSCDW
peptide 2: KKKKKKKKKKKKKKC
chain: AEGDDPAKAAFNSLQASATEYIGYAWAMVVVIVGATIGIKLFKKFTSKAS
modifications: Cys thiol joined to the maleimide of the PEG100 ligand; C-terminal carboxamide; N-terminal azide clicked to pentynoic acid, then HBTU-coupled non-specifically (carboxylates incl. side chains, Asp12 may be partly modified) to Mal-PEG100-NH2; C-terminal carboxamide
notes: mature; Whole M13 virion; K14-Cys held electrostatically on P8
For the molecule B5, the binding result in assay [10] is “binds”.

Take AEGDDPAKAAFNSLQASATEYIGYAWAMVVVIVGATIGIKLFKKFTSKAS (other, M13 bacteriophage, UniProt P69541 24-73, looked up, not fully specified, mature; also called control phage) [Stop-4 phage (phagemid packaged by helper phage, no ligand displayed)]: the binding result in assay [11] is “no binding (tested: last point just right of the 10 nM tick)”; in assay [12], “no binding”.

B6: phage wrapped with P100NSP-P4-2 (peptide)
peptide 1: SECVEVFQNSCDW
peptide 2: KKKKKKKKKKKKKKC
chain: B5 chain
modifications: Cys thiol joined to the maleimide of the PEG100 ligand; C-terminal carboxamide; N-terminal azido-PEG4-carboxylic acid, clicked to pentynoic acid, then HBTU-coupled non-specifically to Mal-PEG100-NH2; C-terminal carboxamide
notes: as for B5
As for B6, in assay [13], the binding result is recorded as “binds”.

B7: KO7 helper phage (other, M13 bacteriophage, UniProt P69541 24-73, looked up)
chain: B5 chain
notes: mature; Helper phage lacking a genetically encoded PSMA ligand; bought from GE Healthcare
Consider B7, for which the binding result in assay [14] was “no binding (tested: about 5 nM)”.

B8: phage wrapped with P100SP-P4-2 (peptide)
peptide 1: SECVEVFQNSCDW
peptide 2: KKKKKKKKKKKKKKC
chain: B5 chain
modifications: Cys thiol joined to the maleimide of the PEG100 ligand; C-terminal carboxamide; N-terminal azido-PEG4-carboxylic acid, clicked to Mal-PEG100-alkyne (specific attachment); C-terminal carboxamide
notes: as for B5
For B8, the binding result in assay [13] is “binds”.

B9: phage wrapped with P100SP-2 (peptide)
peptide 1: SECVEVFQNSCDW
peptide 2: KKKKKKKKKKKKKKC
chain: B5 chain
modifications: Cys thiol joined to the maleimide of the PEG100 ligand; C-terminal carboxamide; N-terminal azide clicked to Mal-PEG100-alkyne (specific attachment); C-terminal carboxamide
notes: as for B5
On to B9, for which the binding result in assay [13] is “binds”.
